Entries after “also recorded” stand apart in the source; their conditions may differ.
Experiments:
[1] = system: HER2/neu (HER1/2 chimera); test: Binding of GST-Shc fusion proteins to HER1/2 chimera from NIH 3T3 lysates, anti-phosphotyrosine blot; details: EGF-stimulated NIH 3T3 lysates
Procedure: (§1) FIGS. 4A, 4B, 4C and 4D. Binding of Shc fragments to growth factor receptors. A, schematic diagram illustrating the Shc fragments used in binding studies. Full length murine p52^shc is indicated in (i) while (ii)-(vi) were generated as GST fusion proteins for use in receptor binding studies. B, association of various GST fusion proteins with activated EGF receptor (EGFR). Binding was performed as in FIG. 2A with the exception that all lysates were stimulated with EGF. All studies used 3 μg of fusion proteins except for the Shc SH2 where 10 μg was used. Immunoblotting was performed with anti-phosphotyrosine. C, binding of Shc fusion proteins to NIH 3T3 cells expressing a HER1/2 chimera. This chimera consists of the EGF receptor extracellular binding domain and the intracellular region of HER2/neu. After stimulation of these cells with EGF (200 ng/ml) lysates were prepared and binding as well as blotting studies were performed as in B using anti-phosphotyrosine antibody. D, binding of Shc 1-209 to TrkA. Beads containing 10 μg of GST fusion proteins Shc 1-209, phospholipase C-γ (PLC-γ) SH2 (contains both N and C SH2 domains), or GST alone were added to lysates from 2×10^7 PC12 cells stimulated with 50 ng/ml nerve growth factor (lanes 1, 2, and 4). The binding of the same amount of lysate to 2 μg of anti-TrkA antibody is shown as a positive control and to indicate the position of TrkA on the blot (lane 3). Otherwise, the binding and blotting were performed as in B using anti-phosphotyrosine antibody. […] Protein concentration was determined by SDS-PAGE (polyacrylamide gel electrophoresis) using bovine serum albumin as a standard. […]

TrkA = target: T1, TrkA (Rattus norvegicus, UniProt P35739); test: Binding of GST fusion proteins to TrkA from nerve growth factor stimulated PC12 cell lysates; details: 10 μg GST fusion protein, PC12 lysates stimulated with nerve growth factor
T1 construct: lysates from 2×10^7 PC12 cells stimulated with 50 ng/ml nerve growth factor; endogenous in cells; host or cells: PC12
T1 sequence (P35739 33-799): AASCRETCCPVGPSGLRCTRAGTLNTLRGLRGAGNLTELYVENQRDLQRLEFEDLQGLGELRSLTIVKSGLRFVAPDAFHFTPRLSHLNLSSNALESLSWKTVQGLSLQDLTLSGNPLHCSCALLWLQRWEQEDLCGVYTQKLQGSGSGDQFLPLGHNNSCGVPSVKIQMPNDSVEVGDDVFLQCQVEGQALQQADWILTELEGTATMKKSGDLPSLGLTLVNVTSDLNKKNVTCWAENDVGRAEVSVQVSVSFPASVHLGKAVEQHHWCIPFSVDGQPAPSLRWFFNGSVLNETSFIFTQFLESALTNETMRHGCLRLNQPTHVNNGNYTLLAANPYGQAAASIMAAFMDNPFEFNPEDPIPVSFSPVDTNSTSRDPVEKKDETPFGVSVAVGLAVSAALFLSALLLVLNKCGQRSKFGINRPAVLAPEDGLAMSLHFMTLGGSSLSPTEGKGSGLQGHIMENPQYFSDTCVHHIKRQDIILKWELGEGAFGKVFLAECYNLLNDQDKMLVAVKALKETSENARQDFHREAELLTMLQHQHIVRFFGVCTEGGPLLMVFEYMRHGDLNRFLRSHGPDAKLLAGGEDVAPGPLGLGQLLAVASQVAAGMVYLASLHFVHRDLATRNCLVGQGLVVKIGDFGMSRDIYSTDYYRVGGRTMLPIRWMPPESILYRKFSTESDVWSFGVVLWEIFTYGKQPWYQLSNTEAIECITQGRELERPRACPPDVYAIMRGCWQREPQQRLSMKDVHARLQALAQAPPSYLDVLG
Procedure: as §1, with “4).” for “4). The binding of the same amount of lysate to 2 μg of anti-TrkA antibody is shown as a positive control and to indicate the position of TrkA on the blot (lane 3). Otherwise, the binding and blotting were performed as in B using anti-phosphotyrosine antibody.”

B1: Shc 1-209: Shc amino terminus, first 209 amino acids of murine p52Shc, generated as a GST fusion protein (protein, UniProt P98083 1-209, looked up, fragment)
chain: MDLLPPKPKYNPLRNESLSSLEEGASGSTPPEELPSPSASSLGPILPPLPGDDSPTTLCSFFPRMSNLKLANPAGGRLGPKGEPGKAAEDGEGSAGAALRDSGLLPLLQDMNKLSGGGGRRTRVEGGQLGGEEWTRHGSFVNKPTRGWLHPNDKVMGPGVSYLVRYMGCVEVLQSMRALDFNTRTQVTREAISLVCEAVPGAKGATRRR
modifications: GST fusion
notes: Shc amino terminus, first 209 amino acids of murine p52Shc, generated as a GST fusion protein
- binding to HER2/neu [1]: bound to HER2/neu
- binding to TrkA (TrkA): bound to HER2/neu and TrkA; also recorded: bind in a similar fashion to that seen with the SH2 domain of phospholipase C-λ

Source: patent US20050032689A1, “Methods for treatment or diagnosis of disease or disorders associated with an APB domain” (New York University, priority 1994, published 2005)
